# From the DeepSol protein solubility set
# Test: soluble on expression in E. coli; label from the status in PepcDB or PDB records
row,Sequence,soluble on expression in E. coli
1,MQDTTLLQMITDDMVSARQLLELLQAESLILHGRDMSEMEQVLAQKQALVILLDQHGRKRSQVLAGMGLPANRSGLQQLASQSEVGEQLLTSSDELNALINECQTLNDQNGSLIQLQQISTAHQLRILNGGETPTLYDARGSTALRAKPRPLSQA,not soluble
2,MQEDTLTSRGNMPYSLNVLIPLSCDLRPPVPQAIHAGRVDHRELGFVHPVSPGDVVAEVLVPAGEHFSPEVAQHLIGEGCALGDASTEHTEGQGVPVVATRSGHLDWDERALAVRDTLVVDEDVTYHVGNIRYFGDLIVRGMVRVAFRVRARSLLVEGLIEGAFIECERLEARGGVKAGGSGRLRVRETVAAPFMENAIVHAGSHVVVSGSSLHNEIKSNASVQVAERLIGGMTAARDSITVGERLGGGMSTLTRVQVGYDPFLNTAVHRLEVQAQHVEEVMLSCAKLAGRGGRLGDKAKARGERYAAALKRLRRKLADLLARLDATSTLETCTIDVRGEVRPGVEICIGPARLMNQDFLKNVRFSYCDGAVVATHPAGRTALEHHHHHH,not soluble
3,MQEKAVVLDDQMIRRALTRISHEIVERNKGVDNCVLVGIKTRGIFIAQRLAERIGQIEGKEMEVGELDITLYRDDLTLQSKNKEPLVKGSDIPVDITKKKVILVDDVLYTGRTVRAAMDALMDLGRPSQIQLAVLVDRGHRELPIRADYVGKNIPTSSEERIEVDLQETDQQDRVSIYDK,soluble
4,MQEKIYQVAVGLIPGVGAATTKTLISYCGCAEQIFKTPKGKLKNIPGIGAVTVDNIYSASVLHEAESIVERAQKLDTQLLFYTDPDYPNRLKQIPDAPTLLYYKGSSALNPPKSIAIVGTRKATEYGRSVVRKLLEEIASYKPLVVSGLAYGIDIQAHRDALELGLETIGVMANGTNIIYPSVHKNTALKMLEQGGLLSEYTFDSIAEPMRFPARNRIIAGMTDATIVIEATQSGGALITAEIADSYDREVLAVPGRITDMASEGCNNLIKQNKAHALTSAADLIELLNWDITPSQQAHKHIILADLEEDELMIYAVLTDNEGIHIDELSWKSQLSMQKISSVLLEMEFKGIVKALPGKKFSLR,not soluble
5,MQELKVPSVGESIVEVEIGAWLKGEGESFAQDEPLVELITDKATLELPAPFAGTLKQILKRTGETARVGEAIALLEEGRAEAAPKAQAPAEAPKEPSPEPLAMPAAERLMQEKGVSPAEVQGTGLGGRILKEDVMRHLEERAPAKPQEAPPPPPPSRPAPPPSTPPQPPADKPWRVSEAVPMTPLRRRIAERLLMVRQTTAMLTTFNEADMSAVIALRKEFGEAFQKKYGVKLGFMSFFVKAVVQALKEIPELNAEIRDNHIVYHRYYDIGIAVGGGEGLVVPVIRDADRLSFAEIEQKIADFAERARTKKLKPEELMGGTFTITNGGIYGSLNSTPLLNPPQVGILGMHAIQERPVVRDGQVVIRPMMYLALSYDHRIVDGREAVTFLRRVKELIENPARLLLEV,soluble
6,MQGEDTIMKTTELKLVYFSPTGTTRRVIMEAARQIDLKSVSFDLSVHKEKKPVLQFDETDFVLFGIPVYSGRVPETFLSYFETLKGNNTPAALIATYGCRAYEDALLELKTEVENRGFHVIGAGAFPTEHSIVRSIGLSRPNKADLKTISEFGIALNRRIKNEDLSALSIQVPGNTPYRKYAKTPLIPKADVSLCTECKACVKSCPAGAISAQDPKKTDKKKCISCLRCVRSCKQKARSVSSMKLSMAAKKLNKVCQSDKAADIFL,not soluble
7,MQGKLNCEIEMEVQIFTHKNCVECNMLLEYLENKGLLGKVKIIDTELYPFLAFEKGVISTPSIFIDGKLVYAGIVDFEEFERILSGQKVTKQIDKASLVEKLMLGIVDSFAATAWLYINRDFDSFLAQKDFVMAVTGLSLLDEREGDEYYNYLRNVMVKEGDRYLEEWKPRMLRNISSNFIREIFWLYERKISKETLTQKYPVEVFAHWLMIRSGAVGRVGLRIYPLSDSTVMKRVLEAYNFMLENYDEIFNKVQKEQMELKTKNKEQVRYLQL,soluble
8,MQGLELPQSYFNAAAKRQKYAMKPGLSALEKNAVIKAAYRQIFERDITKAYSQSISYLESQVRNGDISMKEFVRRLAKSPLYRKQFFEPFINSRALELAFRHILGRGPSSREEVQKYFSIVSSGGLPALVDALVDSQEYADYFGEETVPYLRGLEHHHHHH,not soluble
9,MQIDNISDEQVVIVRMSCYLKKDEIFKNIERYGYQSSDIKKISPPFPLNILPVPKPYYFYLYDTHLNQIYDLAWSCNDFLMFEIFILDRESIKYIDKDKLFKSRETLYSNFKSIKNQCKNYFFCGFDFDAPYFKSGVSQVADYNFVPDAFSLFFI,not soluble
10,MQKKSIYVAYTGGTIGMQRSEQGYIPVSGHLQRQLALMPEFHRPEMPDFTIHEYTPLMDSSDMTPEDWQHIAEDIKAHYDDYDGFVILHGTDTMAYTASALSFMLENLGKPVIVTGSQIPLAELRSDGQINLLNALYVAANYPINEVTLFFNNRLYRGNRTTKAHADGFDAFASPNLPPLLEAGIHIRRLNTPPAPHGEGELIVHPITPQPIGVVTIYPGISADVVRNFLRQPVKALILRSYGVGNAPQNKAFLQELQEASDRGIVVVNLTQCMSGKVNMGGYATGNALAHAGVIGGADMTVEATLTKLHYLLSQELDTETIRKAMSQNLRGELTPDD,soluble
11,MQKNNNKLTMSARFGEWYKEATENCAERELYATSLIARMDWVVDPISSKSYRYDLTTDLNKNHSSAWYDVATEICNKRKETVIRAILEDNIKIENF,soluble
12,MQKRDGHIHTPFCPHGSNDTLRQYAEEALKKGFESITFTEHAPLPPSFTDPTPLKDSAMAQASLERYIHEISGLKKEYRGQLSIRTGLEVDYIAEFEDEITLFLDTYGPYLDDSILSVHFLRTDSSYLCLDYDEHTFKELISACGSIEAVYEQYYRSIYSSIVASLGVYKPKRVGHITLVQKFIKLFPYSMSEHIRGLVSLCLNAIEENGMELDFNTSGLRKTYAGGIYIEDWMLNEAKQKKIPLVFGSDAHQAGDVGYAYEAFLERCLEHHHHHH,not soluble
13,MQKSDEVTEKFKRYCNQLEKYGQTENVHSPVMAMLRRKGRKQLIEIMKRDGDCTSSINKLWIVGYYHPFQFFIRDKEKNMAIAVLLTMFCGELQEMLSLPDDKYPALWNMYIGDFHRYMPDEEIQKCLAVGYYSRAIDLDPNQGRAFHVLAGLRADLNVAQKLRLMILGQLADAPYKKGTELLEYLKFPQKESTDKLMVDFVIWALNEKSKRMDYQMTGIKIVNEFKAEIEQKLEFDWSLIMSTCRLASKLAMKKFGFQQFYNCFDTISTLYITIYSRTISSKCLLAEAISWISDSAEILGHLDEQKNEPHFQKLSVFAKTKWNELNDLVMNHINSVFTSMSLTINPSISMTSFLLNGPISEPNVEFLSQLINYLVSVEFPPMEIIHDREESGPLLRRINQSEQKRLDIQIKTQNDEVNREDWRPVYVLMDYDVIVDKIRIALKIWDIDDFICILPSTVLDELDYQKTKNRAVRPVIRALMELQAEGKIVLKKCDNERSCAEQLVQSARRSAEDHKHIVAFLCKNPSEQKEMEGVTFYDIDQFYMKYLE,not soluble
14,MQKVHVQYIDGETDQMLRQDDLDGYTDETIPYSTAEGIKKFEGDGYELFKDNFPAGEKFDNDDTNDQFYTVIFKHHRENVDPNHSSADGTKGTKTLTETVHYKYANGTKAAEDQTAQVTFTRNGVLDDVTGIVAWGKWNEASQSYKALTSPTIAGYAPSEAVVKRSSNSDAEQGPTLTVIYTADA,soluble
15,MQLDIDGLKVLFPYDYVYPEQVLYMKEVKKALDARGHGLLEMPSGTGKTVSLLSLVLAYMISYPDKLDKLVYCSRTIPEIEKCVEEMKVLYDYWEKETGQPVAKITVAMSARKNLCVNEPVAALRFGNTVDSACQKLTASSARQKRAEDPTLEACDYFENFEAKSVPMQNGVWNLVKICEFWGTDKIEIFREKIQEI,not soluble
16,MQLSTLTALSPLDGRYQDKVTPLRAIFSEFGLMKFRVAVEVRWLQKLASTADITEVPPFSTQANAFLDGIVANFNEADAARIKEIERTTNHDVKAVEYFLKEKIQNEVELVKVSEFIHFACTSEDINNLSHALMLSTARDEVILPEWQKLIDEITRLAEEYKTIPLLSRTHGQPASPSTVGKEMANVVYRLKRQFKQLQNAEILGKINGAVGNYNAHLSAYPNIDWHKFSEEFVTSLGIQWNPYTTQIEPHDYITEFFDAVVRFNTIIIDFDRDLWGYIALNHFKQRTIAGEIGSSTMPHKVNPIDFENSEGNLGLANAVMTHLGQKLPISRWQRDLTDSTVLRNLGVGLGYCLIAYASTRKGISKLEVNQPHLLEELNQNWEVLAEPIQTVMRRYGIEKPYEKLKELTRGKRVTEQAMREFIDKLDIPQEEKLRLQKLTPATYIGAAVELVEKLS,not soluble
17,MQNHVISLASAAERRAHIAATFGARGIPFQFFDALMPSERLEQAMAELVPGLSAHPYLSGVEKACFMSHAVLWKQALDEGLPYIAVFEDDVLLGEGAEKFLAEDAWLKERFDPDSAFIVRLETMFMHVLTSPSGVADYCGRAFPLLESEHWGTAGYIISKKAIRFFLQHFVMLQPEQIKPIDLMMFSDFFDKEGMPVYQVSPALCAQELHYAKFHDQNSALGSLIEHDRLLNRKQQRRDSPANTFKRRLIRALTKISLEHHHHHH,soluble
18,MQNHVISLASAAERRAHIAATFGSRGIPFQFFDALMPSERLEQAMAELVPGLSAHPYLSGVEKACFMSHAVLWKQALDEGLPYIAVFEDDVLLGKDAEKFLAEDTWLEERFDKDSAFIVRLETMFAKVIVRPDKVLNYENRSFPLLESEHCGTAGYIISREAMRFFLDRFAVLPPERIKAVDLMMFTYFFDKEGMPVYQVSPALCTQELHYAKFLSQNSMLGSDLEKDREQGRRHRRSLKVMFDLKRALGKFGREKKKRMERQRQAELEKVYGRRVILFKLEHHHHHH,soluble
19,MQNIHQHNYVISLKTADARRQHIIQEFAKHNIPFQFFDACSIENNLYMDIEKHLPMLLNSKLSNSEKGCLMSHFLLWKKCVLDDIPYMTIFEDDIILSDESNEFISDYSWVNNRFYEQKEILIKFETFLMPVIRKFTKINEYKERAFNQLISRHFGTASYLISKEAAKYLILLYEKLPADELIAVDESIFNVLLNDKNLCVYQLEPAICVQELQFNKENSLLISQIEEDRYKNQKQNKPRKTLKQRIIKVCYNINRIFKKIKKTKLSDEKDINSDIVKFKLEHHHHHH,not soluble
20,MQPKVTVAQAAELMGVSDRTIRKKIEEGEITAEPAQSAKGKGRPGYLIPVSSLPVDAQRKYWTTSEVAAASEIGEAEPDKPETTGIPYTLAELEHAVGKEKFQEMMAEAEYRLQIVEQAMNPPQGVERTIWINRLAKKYGKSTATIYRDIEKFQEWGILGLMRKSRLLTQGPQRTSIEPEVERFIRAKYLDRRKPKPAHIFRETVRFCATNGYKAPSRASVFRYISDMERYEPDLCCLAREGEEAYWKKFAEKATRKEPEFVNQVWMGDHHKLDMFISYKGKPVRPWLTVWFDVCSRVVVGWCLSVQANGRTIALALRHALLPKKIKRDDGTEDVLEIGGIPGMIYIDNGEDYKAQVRAGKKHEDWELSRETRGICASLDIKVQFATPYHPWAKAHVERFFGTFTDQFTRYQPGWCGPNNEDRPEGFDEKELHEKGLLLDLEELSERIDTWLYEYHTTEHRSLGMTPMQKHFSTPKIREGFADERALDICLMDVERAAVTPNGIERFGTRGRKRWYWHPELPAYAGQKVIIRYDPNRIGELLVFHPKTGKYLFTATNKELLDFNATKDDIQELQKRRASRRKAVKEMVRNAQQASLENIVAEREAAGSRMTSGKAGSTKGKVRAMIGTEQVVRQREEQANLAKTKRPTKTTSAFDDYILREGTEG,not soluble
